T1: yeast Snu56 (S. cerevisiae, UniProt Q03782 1-492)
T1 construct: Snu56 of S. cerevisiae, 492 residues; N-terminal domain 47-254 and long helix 255-303 modelled; source: endogenous, S. cerevisiae; co-purified in U1 snRNP through the TAP tag on U1A
T1 sequence (looked up): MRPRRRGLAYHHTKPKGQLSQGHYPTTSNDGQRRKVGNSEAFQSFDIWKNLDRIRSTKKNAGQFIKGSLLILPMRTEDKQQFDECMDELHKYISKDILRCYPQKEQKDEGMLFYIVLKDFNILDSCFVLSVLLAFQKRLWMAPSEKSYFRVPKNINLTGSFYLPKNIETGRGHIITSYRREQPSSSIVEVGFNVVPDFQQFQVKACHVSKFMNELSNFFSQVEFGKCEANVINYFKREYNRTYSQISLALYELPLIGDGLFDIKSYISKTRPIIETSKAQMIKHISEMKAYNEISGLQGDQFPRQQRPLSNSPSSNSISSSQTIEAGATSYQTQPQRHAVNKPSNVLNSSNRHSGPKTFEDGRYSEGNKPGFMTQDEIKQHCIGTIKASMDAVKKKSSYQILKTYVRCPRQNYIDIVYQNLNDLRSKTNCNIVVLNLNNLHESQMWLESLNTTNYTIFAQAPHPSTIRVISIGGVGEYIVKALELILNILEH

T2: yeast Prp42 (S. cerevisiae, UniProt Q03776 1-544)
T2 construct: Prp42 of S. cerevisiae, 544 residues; residues 2-540 modelled; source: endogenous, S. cerevisiae; co-purified in U1 snRNP through the TAP tag on U1A
T2 sequence (looked up): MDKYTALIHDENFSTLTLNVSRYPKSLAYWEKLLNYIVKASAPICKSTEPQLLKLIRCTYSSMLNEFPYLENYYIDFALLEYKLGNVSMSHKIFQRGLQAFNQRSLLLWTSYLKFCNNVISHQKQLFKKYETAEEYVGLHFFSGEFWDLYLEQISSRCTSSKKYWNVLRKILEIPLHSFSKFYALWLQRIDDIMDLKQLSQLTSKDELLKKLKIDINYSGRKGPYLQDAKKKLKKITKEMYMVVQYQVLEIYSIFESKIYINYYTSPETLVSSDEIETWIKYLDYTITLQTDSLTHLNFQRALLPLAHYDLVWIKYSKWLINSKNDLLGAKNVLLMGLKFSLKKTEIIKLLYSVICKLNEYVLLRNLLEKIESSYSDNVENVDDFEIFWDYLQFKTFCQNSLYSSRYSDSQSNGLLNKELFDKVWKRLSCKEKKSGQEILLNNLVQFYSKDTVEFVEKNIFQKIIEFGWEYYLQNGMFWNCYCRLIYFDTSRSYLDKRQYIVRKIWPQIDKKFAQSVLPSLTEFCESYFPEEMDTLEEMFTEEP

T3: yeast Prp40 (S. cerevisiae, UniProt P33203 1-583)
T3 construct: Prp40 of S. cerevisiae U1 snRNP; not modelled in the structure; source: endogenous, S. cerevisiae; co-purified in U1 snRNP through the TAP tag on U1A
T3 sequence (looked up): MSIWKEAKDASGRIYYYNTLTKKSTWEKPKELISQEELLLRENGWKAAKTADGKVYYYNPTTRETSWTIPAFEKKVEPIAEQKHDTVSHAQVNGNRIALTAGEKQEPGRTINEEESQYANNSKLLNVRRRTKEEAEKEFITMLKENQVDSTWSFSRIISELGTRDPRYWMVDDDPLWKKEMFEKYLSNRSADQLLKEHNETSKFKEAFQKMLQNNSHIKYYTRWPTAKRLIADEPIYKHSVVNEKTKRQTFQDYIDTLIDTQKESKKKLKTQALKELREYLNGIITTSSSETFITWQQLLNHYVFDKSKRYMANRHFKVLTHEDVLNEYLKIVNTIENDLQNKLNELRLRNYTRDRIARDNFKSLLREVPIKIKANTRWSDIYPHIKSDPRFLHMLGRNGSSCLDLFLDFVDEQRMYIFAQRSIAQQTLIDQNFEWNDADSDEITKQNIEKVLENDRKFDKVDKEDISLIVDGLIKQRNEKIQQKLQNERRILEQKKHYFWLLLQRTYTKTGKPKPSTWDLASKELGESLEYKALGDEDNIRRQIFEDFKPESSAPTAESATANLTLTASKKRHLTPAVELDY

T4: yeast U1C (S. cerevisiae, UniProt Q05900 1-231)
T4 construct: U1C of S. cerevisiae U1 snRNP, 231 residues; NTD residues 1-48; residues 3-47 and 48-195 modelled; also called Yhc1; source: endogenous, S. cerevisiae; co-purified in U1 snRNP through the TAP tag on U1A
T4 sequence (looked up): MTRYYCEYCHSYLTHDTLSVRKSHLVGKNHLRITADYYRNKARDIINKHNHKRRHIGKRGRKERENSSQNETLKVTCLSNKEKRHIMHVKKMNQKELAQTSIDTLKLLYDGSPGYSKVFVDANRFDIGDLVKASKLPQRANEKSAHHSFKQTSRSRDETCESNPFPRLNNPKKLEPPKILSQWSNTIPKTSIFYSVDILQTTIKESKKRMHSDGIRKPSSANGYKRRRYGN


Legend:
[1] = target: T1, yeast Snu56; assay: cryo-EM structure; natively purified yeast U1 snRNP, 3.6 Å overall resolution; conditions: both partners purified
[2] = target: T2, yeast Prp42; assay: as above; conditions: both partners purified
[3] = target: T3, yeast Prp40; assay: cross-linking; purified yeast U1 snRNP cross-linked with 100 uM BS3, 30 min, room temperature; trypsin digest, mass spectrometry; conditions: both partners purified
[4] = target: the molecule itself; assay: negative-stain EM; purified Flag-PrpF39; reference-free 2D class averages and preliminary 3D model compared with the Prp42/Prp39 heterodimer
[5] = target: T4, yeast U1C; assay: cryo-EM structure; natively purified yeast U1 snRNP, 3.6 Å overall resolution; conditions: both partners purified

binding result [1] | binding result [2] | binding result [3] | binding result [5] | Binder | stoichiometry N [4]
binds | binds | binds | – | yeast Luc7 (natural protein, S. cerevisiae, UniProt Q07508 1-261, looked up, Luc7 of S. cerevisiae, 261 residues; first (pseudo) Zn-finger modelled; source: endogenous, S. cerevisiae; co-purified in U1 snRNP through the TAP tag on U1A) MSTMSTPAAEQRKLVEQLMGRDFSFRHNRYSHQKRDLGLHDPKICKSYLVGECPYDLFQGTKQSLGKCPQMHLTKHKIQYEREVKQGKTFPEFEREYLAILSRFVNECNGQISVALQNLKHTAEERMKIQQVTEELDVLDVRIGLMGQEIDSLIRADEVSMGMLQSVKLQELISKRKEVAKRVRNITENVGQSAQQKLQVCEVCGAYLSRLDTDRRLADHFLGKIHLGYVKMREDYDRLMKNNRTTNASKTATTLPGRRFV | –
– | – | – | – | human PrpF39, Flag-tagged (second copy HA-tagged in the co-IP) (natural protein, UniProt Q86UA1 1-669, looked up, human PrpF39; In the co-IP two differently tagged copies (Flag-PrpF39 and HA-PrpF39) were co-transfected; The purified protein carries the Flag tag; also called Flag-PrpF39; HA-PrpF39; source: HEK293FT, transfected (pEF-Bos-Flag-PrpF39 and/or pEF-Bos-HA-PrpF39), in lysate; also purified (anti-Flag M2 agarose, 3x Flag peptide elution, Superose 6 gel filtration)) MQNSHMDEYRNSSNGSTGNSSEVVVEHPTDFSTEIMNVTEMEQSPDDSPNVNASTEETEMASAVDLPVTLTETEANFPPEYEKFWKTVENNPQDFTGWVYLLQYVEQENHLMAARKAFDRFFIHYPYCYGYWKKYADLEKRHDNIKPSDEVYRRGLQAIPLSVDLWIHYINFLKETLDPGDPETNNTIRGTFEHAVLAAGTDFRSDRLWEMYINWENEQGNLREVTAIYDRILGIPTQLYSHHFQRFKEHVQNNLPRDLLTGEQFIQLRRELASVNGHSGDDGPPGDDLPSGIEDITDPAKLITEIENMRHRIIEIHQEMFNYNEHEVSKRWTFEEGIKRPYFHVKPLEKAQLKNWKEYLEFEIENGTHERVVVLFERCVISCALYEEFWIKYAKYMENHSIEGVRHVFSRACTIHLPKKPMVHMLWAAFEEQQGNINEARNILKTFEECVLGLAMVRLRRVSLERRHGNLEEAEHLLQDAIKNAKSNNESSFYAVKLARHLFKIQKNLPKSRKVLLEAIERDKENTKLYLNLLEMEYSGDLKQNEENILNCFDKAVHGSLPIKMRITFSQRKVEFLEDFGSDVNKLLNAYDEHQTLLKEQDSLKRKAENGSEEPEEKKAHTEDTTSSSTQMIDGDLQANQAVYNYSAWYQYNYQNPWNYGQYYPPPPT | 2
– | binds | – | binds | yeast SmD3 (natural protein, S. cerevisiae, UniProt P43321 1-101, looked up, SmD3 of S. cerevisiae, member of the Sm ring of U1 snRNP; source: endogenous, S. cerevisiae; co-purified in U1 snRNP through the TAP tag on U1A) MTMNGIPVKLLNEAQGHIVSLELTTGATYRGKLVESEDSMNVQLRDVIATEPQGAVTHMDQIFVRGSQIKFIVVPDLLKNAPLFKKNSSRPMPPIRGPKRR | –
